Measurements as given in the supplement of paper PMC9170038.

System: MS2 coat protein
Test: apparent KD of MS2 coat protein; designed switch direction (-1 OFF switch, 1 ON switch): -1; higher = weaker reporter binding
How it was run: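 The reported apparent KD is a per-design median over clusters, from curve fits of normalised cluster fluorescence. Protein titrations used SNAP-549-labelled MS2 coat protein, doubled from 0.7 or 1.5 nM to 3 µM, in Tris-HCl pH 7.5 buffer with KCl, MgCl2, BSA, DTT, tRNA and Tween-20, with no input, 200 uM small-molecule ligand, or an oligonucleotide input. The RNA switches were transcribed on Illumina chips by stalled E. coli RNA polymerase.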

[1] = Eterna round: R95, input ligand: microRNA oligo, concentration not stated
[2] = Eterna round: R95, input ligand: FMN 200 uM
[3] = Eterna round: R95, input ligand: none
[4] = input ligand: microRNA oligo, concentration not stated

Sequence	apparent KD of MS2 coat protein [1] [µM]	apparent KD of MS2 coat protein [2] [µM]	apparent KD of MS2 coat protein [3] [µM]	apparent KD of MS2 coat protein (input ligand: FMN 200 uM) [µM]	apparent KD of MS2 coat protein (input ligand: none) [µM]	apparent KD of MS2 coat protein [4] [µM]
GAUAGAGAGCAGGAUAUCUUGGGUAAGUAUCGUAGAGAAGGGCUCACAUGAGGAUCACCCAUGUGGUCCUAGAU [JL Dibiri mod 03] (puzzle: Exclusion 6)	0.0115	–	–	–	–	–
GAUAGAGAGCAGGAUAUCUUGGGUAAGUGUUGUAGAGAAGGGCUCACAUGAGGAUCACCCAUGUGGUCCUAGAU [JL Dibiri mod 08] (puzzle: Exclusion 6)	0.0145	0.0335	0.0113	–	–	–
GAUCAACAUGAGGAUCACCCAUGUGAGGAUAUGAUACUAUGUACUUCGGUACAUAGUAUCAGAAGGCAUAUAAA [Ex1-3: 37] (puzzle: Exclusion 1)	0.0404	–	–	–	–	–
GAUCAUGCAGGAUAUACAUGUUCCAUGAAAACAUGGUCCUCACAUGAGGAUCACCCAUGUAGAAGGGCAUGAUC [Omei Ex2 A31] (Eterna round: R97, puzzle: Exclusion 2)	–	–	–	0.132	1.45	–
GAUCCUAGUGUCAGGAUAUGCGAACAAACGCCAAAGCAGAAGGGACUUGAGGAUCACCCAAGUCGCGAUGCGAC [Arbiaran] (Eterna round: R97, puzzle: Brourd's mod of Exclusion 4)	–	–	–	0.257	0.0451	–
GAUGAAAGAGUCAGGAUAUAUAACCACGACGGCUUGUAGAAGGGACAUGAGGAUCACCCAUGUGAUGGAAUGAU [Eternabot (L2) Solution 13] (Eterna round: R97, puzzle: Brourd's mod of Exclusion 4)	–	–	–	0.064	0.0436	–
GAUGAGGUAGGAUAUACGAUAAUAUAGGGUAGAUAUAUAACACAUGAGGAUCACCCAUGUAGAAGGACCAGGAG [Mat - Exclusion 2 - Mod of my Tesla design - D65] (puzzle: Exclusion 2)	0.0281	0.0773	0.0361	–	–	–
GAUUAACAUGAGGAUCACCCAUGUGAGGAUAUGAACUUGCCCACUUACCCUUUAGAGUUUAGAAGGCGCAUUCU [1986#33] (Eterna round: R97, puzzle: Exclusion 1)	–	–	–	0.0224	0.0282	–
GAUUAGCGAGGAUAUACAUGAGGAUCACCCAUGUGAUCCUAAGGCUGAUCAAGCCUAUGUAGAAGGCGCAAAUC [salish99_ex3_r5_001] (Eterna round: R97, puzzle: Exclusion 3)	–	–	–	0.0352	0.224	–
GAUUAUGCGAGCUUUAGGGACAUGAGGAUCACCCAUGUUCGUCUUAUUAAUCUGGGUGCACUGACAUACCUAAAUCU [JMF 92] (puzzle: Sensor v3, turn-off variant 1)	0.0819	0.0909	0.132	–	–	–
GAUUAUGCGAGCUUUAGGGACAUGAGGAUCACCCAUGUUCGUCUUAUUAGUCUAAAUACGCUGACAUACCUAAAUCU [JMF 94] (puzzle: Sensor v3, turn-off variant 1)	0.018	0.014	0.0182	–	–	–
GAUUAUGCGAGCUUUAGGGACAUGAGGAUCACCCAUGUUCGUCUUAUUAGUCUAGAUGCACUGACAUACCUAAAUCU [JMF 78] (puzzle: Sensor v3, turn-off variant 1)	0.0196	0.015	0.0144	–	–	–
GAUUAUGCGAGCUUUAGGGACAUGAGGAUCACCCAUGUUCGUCUUAUUGAUCUAAGUGCACUAACAUACCUAAAUCU [JMF 29] (puzzle: Sensor v3, turn-off variant 1)	0.0537	0.0251	0.027	–	–	–
GAUUAUGCGAGCUUUAGGGACAUGAGGAUCACCCAUGUUCGUCUUAUUGAUCUAGGUACGCUGACGUACCUAGAUCU [JL-sv1-2.35 Brourd mod] (puzzle: Sensor v3, turn-off variant 1)	0.0337	0.0219	0.0218	–	–	–
GAUUAUGCGAGCUUUAGGGACAUGAGGAUCACCCAUGUUCGUCUUAUUGGUCUGAGUGCACUGACAUACCUAAAUCU [JMF 86] (puzzle: Sensor v3, turn-off variant 1)	0.0309	0.0194	0.0199	–	–	–
GAUUAUGCGAGCUUUAGGGACAUGAGGAUCACCCAUGUUCGUCUUAUUGGUCUGGAUACGCUAACAUACCUAAAUCU [JMF 38] (puzzle: Sensor v3, turn-off variant 1)	0.0306	0.0215	0.0248	–	–	–
GAUUAUGCGAGCUUUAGGGACAUGAGGAUCACCCAUGUUCGUCUUAUUGGUCUGGAUGCGCUAACAUACCUAAAUCU [JMF 46] (puzzle: Sensor v3, turn-off variant 1)	0.0317	0.0224	0.0226	–	–	–
GAUUAUGCGAGCUUUAGGGACAUGAGGAUCACCCAUGUUCGUCUUGUUGAUCUAGGUACACUAACAUACCUAAAUCU [JMF 16] (puzzle: Sensor v3, turn-off variant 1)	0.0285	0.0199	0.0219	–	–	–
GAUUGACAUGAGGAUCACCCAUGUGAGGAUAUCGGCCGGACCUUGUUAGCUUCCGUCGCGAGAAGGCGCAUAGG [Exclusion 1 V37] (puzzle: Exclusion 1)	0.0399	0.0626	0.0332	–	–	–
GCAAGCUUAAUCAGUAUGAACAUGAGGAUCACCCAUGUAUAAGGUAAUCCUUUUGGGCCCUUUAUUACUCGUCUUAU [JR_STOV1_Sub028] (Eterna round: R97, puzzle: Sensor, turn-off variant 1)	–	–	–	0.322	0.405	–
GCAAGCUUUUCGAUCCUCGACAUGAGGAUCACCCAUGUGCUCGAAUUGUUUAGUACUAUCACGAAAGUGAUAGUACA [Sensor, turn off variant 1 v.3] (Eterna round: R97, puzzle: Sensor, turn-off variant 1)	–	–	–	1.57	1.57	–
GCAAGCUUUUUCAAUAAGAACAUGAGGAUCACCCAUGUUUAAGGUAUUACUUUUGGGCUCUUUAGUGCUAGUCUUAU [JR_STOV1_Sub036] (Eterna round: R97, puzzle: Sensor, turn-off variant 1)	–	–	–	0.0459	0.0455	–
GCACGAAGUGGAGGAUAUCUGGGCGAGGAGCGCAGAGAAGGCCACAUGAGGAUCACCCAUGUUUUCCACGGAUAGCAAACGUGC [exng1 ex2.1] (Eterna round: R96, puzzle: Exclusion NG 1)	–	–	–	0.0255	0.023	0.0152
GCACGAAGUGUAGGAUAUCUGUGCGAUUAGCUCAGAGAAGGACACAUGAGGAUCACCCAUGUGUUUCACGGAAACGAAACGUGC [Eli exng1 - 054] (Eterna round: R96, puzzle: Exclusion NG 1)	–	–	–	0.0107	0.0162	0.00954
GCACGAUAUCAGGAUAUGACUAGCUUCGGCUAGUCAGAAGGGAUGACAUGAGGAUCACCCAUGUGAUCACGUGC [E6/1-B1] (Eterna round: R97, puzzle: Exclusion 6)	–	–	–	0.0796	0.0605	–
GCACGGAGUGUAGGAUAUCUGUGCGAUUAGCUCAGAGAAGGACACAUGAGGAUCACCCAUGUGUAACUCAACAAUAAUCCGUGC [Eli exng1 - 073] (Eterna round: R96, puzzle: Exclusion NG 1)	–	–	–	0.0183	0.0119	0.00853
GCACGGAGUGUAGGAUAUUAGUGCGAUUAGCACUGAGAAGGACAUGAGGAUCACCCAUGUUCCUCGAUAAAAUACCUUCCGUGC [Eli exng1 - 041] (Eterna round: R96, puzzle: Exclusion NG 1)	–	–	–	0.0132	0.0118	0.00759
GCACGGUAAGUGAGGAUAUACCUCUGGAUACAGAGGUAGAAGGCACAUGAGGAUCACCCAUGUCUAAACCGUGC [Fiskers BMX 4 - 82] (puzzle: Brourd's mod of Exclusion 4)	0.0186	0.0249	0.018	–	–	–
GCACUGGCAGGAUAUACAUGAGGAUCACCCAUGUGAUCCCUUAAGUACAAAAGUACUAGUAGAAGGGCCUGUGC [Omei Ex3 Model Bachelor's Dilema v46] (Eterna round: R97, puzzle: Exclusion 3)	–	–	–	0.307	0.785	–
GCAGAUGUAGUGAGGAUAUGCUCUACCUCGGUAGAGCAGAAGGCACAUGAGGAUCACCCAUGUGAUUCAUCUGC [Omei Ex4B B7] (Eterna round: R97, puzzle: Brourd's mod of Exclusion 4)	–	–	–	0.211	0.0286	–
